Measured values as given in patent US20070065890A1, “Method for promoting formation of facultative heterochromatin” (priority 2005, published 2007).

B1: SirT2: Recombinant SirT2 expressed in E. coli (protein)
chain: MAEPDPSHPLETQAGKVQEAQDSDSDSEGGAAGGEADMDFLRNLFSQTLSLGSQKERLLDELTLEGVARYMQSERCRRVICLVGAGISTSAGIPDFRSPSTGLYDNLEKYHLPYPEAIFEISYFKKHPEPFFALAKELYPGQFKPTICHYFMRLLKDKGLLLRCYTQNIDTLERIAGLEQEDLVEAHGTFYTSHCVSASCRHEYPLSWMKEKIFSEVTPKCEDCQSLVKPDIVFFGESLPARFFSCMQSDFLKVDLLLVMGTSLQVQPFASLISKAPLSTPRLLINKEKAGQSDPFLGMIMGLGGGMDFDSKKAYRDVAWLGECDQGCLALAELLGWKKELEDLVRREHASIDAQSGAGVPNPSTSASPKKSPPPAKDEARTTEREKPQ
B2: SirT3: Recombinant SirT3 expressed from baculovirus in SF9 cells (protein)
chain: MAFWGWRAAAALRLWGRVVERVEAGGGVGPFQACGCRLVLGGRDDVSAGLRGSHGARGEPLDPARPLQRPPRPEVPRAFRRQPRAAAPSFFFSSIKGGRRSISFSVGASSVVGSGGSSDKGKLSLQDVAELIRARACQRVVVMVGAGISTPSGIPDFRSPGSGLYSNLQQYDLPYPEAIFELPFFFHNPKPFFTLAKELYPGNYKPNVTHYFLRLLHDKGLLLRLYTQNIDGLERVSGIPASKLVEAHGTFASATCTVCQRPFPGEDIRADVMADRVPRCPVCTGVVKPDIVFFGEPLPQRFLLHVVDFPMADLLLILGTSLEVEPFASLTEAVRSSVPRLLINRDLVGPLAWHPRSRDVAQLGDVVHGVESLVELLGWTEEMRDLVQRETGKLDGPDK
B3: G4-SirT1: SirT1 fused to the Gal4 DNA binding domain (protein)
chain: MKLLSSIEQACDICRLKKLKCSKEKPKCAKCLKNNWECRYSPKTKRSPLTRAHLTEVESRLERLEQLFLLIFPREDLDMILKMDSLQDIKALLTGLFVQDNVNKDAVTDRLASVETDMPLTLRQHRISATSSSEESSNKGQRQLTVSMADEAALALQPGGSPSAAGADREAASSPAGEPLRKRPRRDGPGLERSPGEPGGAAPEREVPAAARGCPGAAAAALWREAEAEAAAAGGEQEAQATAAAGEGDNGPGLQGPSREPPLADNLYDEDDDDEGEEEEEAAAAAIGYRDNLLFGDEIITNGFHSCESDEEDRASHASSSDWTPRPRIGPYTFVQQHLMIGTDPRTILKDLLPETIPPPELDDMTLWQIVINILSEPPKRKKRKDINTIEDAVKLLQECKKIIVLTGAGVSVSCGIPDFRSRDGIYARLAVDFPDLPDPQAMFDIEYFRKDPRPFFKFAKEIYPGQFQPSLCHKFIALSDKEGKLLRNYTQNIDTLEQVAGIQRIIQCHGSFATASCLICKYKVDCEAVRGDIFNQVVPRCPRCPADEPLAIMKPEIVFFGENLPEQFHRAMKYDKDEVDLLIVIGSSLKVRPVALIPSSIPHEVPQILINREPLPHLHFDVELLGDCDVIINELCHRLGGEYAKLCCNPVKLSEITEKPPRTQKELAYLSELPPTPLHVSEDSSSPERTSPPDSSVIVTLLDQAAKSNDDLDVSESKGCMEEKPQEVQTSRNVESIAEQMENPDLKNVGSSTGEKNERTSVAGTVRKCWPNRVAKEQISRRLDGNQYLFLPPNRYIFHGAEVYSDSEDDVLSSSSCGSNSDSGTCQSPSLEEPMEDESEIEEFYNGLEDEPDVPERAGGAGFGTDGDDQEAINEAISVKQEVTDMNYPSNKS

Assays:
recombinant human H1b = molecular target: T1, recombinant human H1b (Homo sapiens, UniProt P10412); assay: In vitro deacetylation of p300-acetylated recombinant H1b by SirT proteins; assay type: biochemical; conditions: equal NAD+-exchange units measured using acetylated BSA as substrate
T1 construct: Human histone H1b and H1° were inserted into HA-Pet30c; HA (N); made in house; host or cells: E. coli BL21 (DE3)
T1 sequence (P10412 2-219): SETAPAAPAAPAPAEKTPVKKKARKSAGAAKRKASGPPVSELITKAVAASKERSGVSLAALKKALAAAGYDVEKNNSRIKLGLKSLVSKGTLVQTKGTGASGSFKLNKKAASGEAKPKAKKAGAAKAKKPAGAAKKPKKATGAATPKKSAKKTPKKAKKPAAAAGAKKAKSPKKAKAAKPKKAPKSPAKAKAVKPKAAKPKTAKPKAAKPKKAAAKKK
Description: Detection of H1 acetylation was performed by using 4 μg of histone H1 (Upstate Biotechnology, Inc., Lake Placid, N.Y.) as an acetylated substrate for SirT1 in the NER. Deacetylation was determined by first performing a deacetylation assay using 20 and 40 μg of H1 and 6 nmol of SirT1. H1 was then isolated in the supernatant of chilled 5% perchloric acid, TCA precipitated (Albig, et al. (1998) FEBS Lett. 435:245-250), and resuspended in buffer C containing 100 mM KCl. Deacetylated H1 was then used in a subsequent NER. In vitro acetylation of H1 or recombinant H1b expressed in E. coli was carried out by incubating 10 μg H1 with 2 nmol baculovirus-generated p300 in the presence of 0.875 μCi [H^3]-Ac-CoA (Amersham, Piscataway, N.J.) in HAT buffer (75 mM Tris-HCl [pH 8.8], 135 mM NaCl). Deacetylation was carried out with the specified enzyme as above using 1 μg of the labeled Hi. […] Counts were then determined by liquid scintillation (PERKINELMER, Wellesley, Mass.) . […] In vivo H1 acetylation was analyzed by treating 293 cells for 18 hours in media containing 5 mM nicotinamide. H1 was purified as described (Albig, et al. (1998) supra) and analyzed in the NER. […]
SirT1 activity on histone H1 was directly tested in vitro. […] The same result was observed using recombinant human H1b; however, specificity was also scored in this assay using different SirT proteins.

[1] = tested on: pTK-Luc reporter under the control of Gal4; assay: Transient transfection Gal4 pTK-Luc reporter assay; assay type: cell-based; conditions: 293F cells, luciferase normalized to β-galactosidase
Description: Transfections. All transfections were carried out in 293F cells using the indicated plasmids and POLYFECT (QIAGEN, Valencia, Calif.) following the protocol provided by the manufacturer. Nuclear and cytoplasmic fractions were isolated by a modified protocol (Dignam, et al. (1983) Methods Enzymol. 101:582-598). Fractions were analyzed by immunoprecipitation with the indicated antibodies followed by immunoblotting, or by luciferase activity (TD20e luminometer; Turner BioSystems, Sunnyvale, Calif.) . In the case of transient transfections, a β-gal reporter was used as a transfection control and the levels of luciferase activity were normalized to those of β-galactosidase, shown as a percentage. dsRNAi was ordered as a custom SMARTPOOL against SirT1 (Dharmacon, Lafayette, Colo.) and was transfected into U2OS cells using RNAFECT (QIAGEN, Valencia, Calif.). After incubation for 48 hours, cells were harvested and lysed with RIPA buffer (50 mM Tris-HCl, pH 7.4, 1% NP40, 0.25% Na-deoxycholate, 150 mM NaCl, 1 mM EDTA, 1 mM PMSF, 1 mM leupeptin, 1 mM aprotinin, and 1 mM pepstatin). Western blots were performed using the indicated antibodies. Total H4 was visualized by both western and COOMASSIE blue staining.
Plasmids. […]

Row | Molecule | H1b deacetylation (recombinant human H1b) | repression of reporter expression [1]
1 | B1 | failed to significantly deacetylate H1b | –
2 | B2 | failed to significantly deacetylate H1b | –
3 | B3 | – | approximately 100%
